Assay results taken from patent publication US20170029530A1 (AbbVie / Abbott, published 2017).
Changes are numbered by the printed parent chain. Several values for one entry are separate records, joined by “and”; a condition that tells them apart may be missing. Equal entries are not always repeated.

T1: rat DPEP3 ECD with histidine tag (rat, UniProt Q5U2X4 36-459, limits assumed)
T1 construct: also called rDPEP3-His; ratDPEP3-His; not shown: histidine tag
T1 sequence: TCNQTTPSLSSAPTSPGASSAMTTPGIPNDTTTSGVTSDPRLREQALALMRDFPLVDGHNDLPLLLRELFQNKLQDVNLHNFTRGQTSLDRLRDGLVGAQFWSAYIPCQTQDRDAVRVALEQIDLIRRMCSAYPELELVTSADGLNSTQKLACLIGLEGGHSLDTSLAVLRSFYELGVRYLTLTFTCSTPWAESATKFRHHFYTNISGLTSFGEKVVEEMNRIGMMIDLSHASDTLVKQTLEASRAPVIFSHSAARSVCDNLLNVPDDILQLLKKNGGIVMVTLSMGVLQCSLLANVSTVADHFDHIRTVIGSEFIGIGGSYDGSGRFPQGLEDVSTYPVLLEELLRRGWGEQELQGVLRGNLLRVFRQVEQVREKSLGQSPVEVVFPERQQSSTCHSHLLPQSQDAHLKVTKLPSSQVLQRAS

T2: mDPEP3 (limits assumed)
T2 construct: also called mouse DPEP3-His; mouse DPEP3 ECD with histidine tag
T2 single chain: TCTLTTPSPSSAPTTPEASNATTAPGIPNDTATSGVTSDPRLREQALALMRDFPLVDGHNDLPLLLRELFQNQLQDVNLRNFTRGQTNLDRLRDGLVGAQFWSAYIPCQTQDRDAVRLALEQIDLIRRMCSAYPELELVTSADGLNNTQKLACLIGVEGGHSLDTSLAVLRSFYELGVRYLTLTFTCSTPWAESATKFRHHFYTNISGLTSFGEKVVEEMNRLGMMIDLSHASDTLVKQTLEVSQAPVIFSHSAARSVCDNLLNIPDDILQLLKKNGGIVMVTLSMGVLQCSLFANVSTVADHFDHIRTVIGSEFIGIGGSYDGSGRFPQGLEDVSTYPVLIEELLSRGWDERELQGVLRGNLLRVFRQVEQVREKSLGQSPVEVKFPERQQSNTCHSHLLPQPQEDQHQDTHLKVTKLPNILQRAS

T3: hDPEP3-ECD-His (human, UniProt Q9H4B8 36-463)
T3 construct: also called hDPEP3-His; monomeric hDPEP3-His antigen; not shown: histidine tag
T3 sequence: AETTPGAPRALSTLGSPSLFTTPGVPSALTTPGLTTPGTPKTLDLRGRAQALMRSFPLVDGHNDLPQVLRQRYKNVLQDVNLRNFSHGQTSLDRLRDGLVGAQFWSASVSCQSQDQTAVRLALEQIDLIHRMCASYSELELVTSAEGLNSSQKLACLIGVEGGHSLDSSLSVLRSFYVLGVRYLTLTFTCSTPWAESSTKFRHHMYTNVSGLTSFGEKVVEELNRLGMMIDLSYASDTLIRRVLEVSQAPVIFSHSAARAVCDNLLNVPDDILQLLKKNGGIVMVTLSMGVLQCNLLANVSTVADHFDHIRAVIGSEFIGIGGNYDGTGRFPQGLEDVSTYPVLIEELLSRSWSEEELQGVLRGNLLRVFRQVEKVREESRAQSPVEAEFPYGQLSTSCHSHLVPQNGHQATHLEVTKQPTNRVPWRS

B1: SC34.67 (antibody, mouse IgG2a, V domains shown)
VH: QVQLQQSGAELARPGASVRLSCKASGYTFTSYGINWVKQRTGQGLEWIGEIYPGSGDSYYNKTFKGKAILTTDKSSSTAYMQLSSLTPEDSAVYFCARVHDYGSWFPYWGPGALVTVSA
VL: DMVMSQSPSSLAVSVGEKVALSCKSSQSLLHSRDQKNYLAWYQQKPGQSPKLLIHWASTRESGVPARFTGSGSGTDFTLTISSVKAEDLAVYYCQQSYRYPLTFGAGTKLELK
B2: SC34.63 (antibody, mouse IgG1)
light chain: DIVMSQSPSSLAVSVGEKVTMSCKSSQSLLYSKYQKNYLAWYQQKPGQSPKLLIYWASTRESGVPDRFTGSESGTDFTLTISSVKAEDLAVYYCQQYYRYPLTVGAGTKLELK
heavy chain: QVQLQQSGVELARPGASVKLSCKASGYTFTSYGIDWVKQRTGQGLEWIGETYPGRGDTYYNENFKGKATLTTDKSSSTAFLQLSSLTSEDSAVYFCARVHDYGSWFPYWGQGTLVTVSA
B3: SC34.76 (antibody, mouse IgG1, V domains shown)
VH: QVQLQQSGAELARPGASVKLSCKTSEYTFTSYAINWVKQRTGQGLEWIGEVYPGSGNTYYNEKFKGKAILTTDKSSSTGYMQLSNLTSEDSAVYFCARVHDYGSWFPYWGQGTLVTVSA
VL: B2 light chain with K18R, S22N, L30F, K33R, E72G, V104F
B4: SC34.7 (antibody, mouse IgG1, V domains shown)
VH: QVQVQQSGAELARPGASVKLSCKASGYTFTSYGINWVKQRTGQGLEWIGEIYPGSGNAYYNEKFKVKAKLTTDNSSRTAYMQLINLTSEDSAVYFCARVHDYGSWFPYWGQGTLVTVSA
VL: B2 light chain with K33R, E72G, Q95H, V104F
notes: also called SC34.07
B5: SC34.91 (antibody, mouse IgG1, V domains shown)
VH: B2 heavy chain with V9A, T30R, G33A, D35S, T51I, R55S, F80Y, L81M, Y102N
VL: B2 light chain with K33T, Y42F, E72G, V104F
B6: SC34.24 (antibody, mouse IgG1, V domains shown)
VH: B3 VH with A9P, T24A, N35T, T41A, V51I, N57D, I69T, G79A, N85S
VL: B2 light chain with S22N, K33R, E72G, V104F
B7: SC34.20 (antibody, mouse IgG1, V domains shown)
VH: QVQLQQSGSELARPGASVKLSCKASGYTFRSYAISWVRQRTGQGLEWIGEIYPESGNTDYNAQFKGKATLTTDKSSSTAYMQLSSLTSEASAVYFCARVHDYGSWFPYWGQGTLVTVSA
VL: B2 light chain with A12T, K33T, Y42F, E72G, V104F
B8: SC34.86 (antibody, mouse IgG1, V domains shown)
VH: B3 VH with T24A, E26G, A33T, N35T, V51I, I69T, G79A, N85S
VL: B2 light chain with I2T, M21L, K33R, I54L, E72G, Y97H, V104F
B9: SC34.27 (antibody, mouse IgG1, V domains shown)
VH: B2 heavy chain with V9A, T30R, D35N, T51I, T58V, F80Y, L81M
VL: B2 light chain with K33R, Y34N, E72G, S82N, Q95H, V104F
B10: SC34.4 (antibody, mouse IgG2b, V domains shown)
VH: B3 VH with T24A, E26G, A33G, V51I, T58I, S77N, G79A, N85S, G110A
VL: DIVMSQSPSSLTVSVGEKVTMSCKSSQSLLYSRNQKNYLAWYQQKPGQSPKLLIYWASTRDSGVPDRFTGTGSGTDFSLTISSVKTEDLAVYYCHQHYRYPLTFGAGTKLELK
notes: also called SC34.04
B11: SC34.95 (antibody, mouse IgG1)
light chain: B2 light chain with M4L, Y31N, K33R, Y34D, Q35R, Y42C, L52V, L53M, E72G, R99S
heavy chain: QVQVKQSGAELARPGASVKLSCKASGYTFTSYAINWLKQRTGQGLEWIGEIYPGSGNTYYNESFKNKATLTTDKSSTTAYMQLNSLTSEDSAVYFCARVHDYGSWFPYWGQGTLVTVSA
B12: SC34.83 (antibody, mouse IgG2a, V domains shown)
VH: QVQLQQSGAELVKPGASVKISCKASGYAFSHSWMNWVKQRPGKGLEWIGRIYPGDGDINYNGKFKGKATLTADKSSSTAYMQLSSLTSEDSAVYFCARRGPSYNNYCFDYWGQGTTLTVSS
VL: QIVLIQSPAIMSASPGENVTMTCSASSSVSYMHWYQQKSGTSPKRWIYDTSKLASGVPARFSGSGSGTSYSLTISSMEAEDAATYYCQQWNSYPPTFGAGTKLELK

molecular target: T1, rat DPEP3 ECD with histidine tag; test: ELISA, coated antigen
Protocol: (§1) The anti-DPEP3 antibodies were screened by ELISA for cross-reactivity with mouse, rat and cynomolgus DPEP3 and for cross reactivity to hDPEP2, the closest DPEP3 family member. ELISA was conducted as follows. Plates were coated with purified mouse, rat or cynomolgus DPEP3-His or hDPEP2-His at 0.3 μg/mL in 0.2 M carbonate-bicarbonate buffer, pH 9.4 overnight at 4° C. The protein solution was removed and the wells were blocked with 1% (w/v) BSA in PBS (PBSA), 100 μL/well for 1 hour at 37° C. Anti-DPEP3 antibody or a mouse isotype control antibody was then added at 1 μg/mL in 50 μL PBSA for 1 hour at room temperature. After washing with water, 50 μL/well HRP-labeled goat anti-mouse IgG antibody diluted 1:10,000 in PBSA was added for 30 min at room temperature. The plates were washed and developed by the addition of 40 μL/well of the TMB substrate solution (Thermo Scientific) at room temperature. An equal volume of 0.2 M H₂SO₄ was added to stop substrate development. The samples were then analyzed by spectrophotometer at OD 450. […] The cross reactivity results for exemplary DPEP3-specific antibodies can be seen in FIG. 4.

binding result | Binder
no binding (tested: 1 ug/mL) | B1
no binding (tested: 1 ug/mL) | B2
no binding (tested: 1 ug/mL) | B3
no binding (tested: 1 ug/mL) | B4
no binding (tested: 1 ug/mL) | B5
no binding (tested: 1 ug/mL) | B6
no binding (tested: 1 ug/mL) | B7
no binding (tested: 1 ug/mL) | B8
no binding (tested: 1 ug/mL) | B9

Molecular target: T2, mDPEP3
Test: ELISA, coated antigen
Protocol: as §1

binding result | Binder
no binding (tested: 1 ug/mL) | B1
no binding (tested: 1 ug/mL) | B10
no binding (tested: 1 ug/mL) | B2
no binding (tested: 1 ug/mL) | B3
no binding (tested: 1 ug/mL) | B4
no binding (tested: 1 ug/mL) | B5
no binding (tested: 1 ug/mL) | B11
no binding (tested: 1 ug/mL) | B6
no binding (tested: 1 ug/mL) | B7
no binding (tested: 1 ug/mL) | B8
no binding (tested: 1 ug/mL) | B9

molecular target: T4, hDPEP2 ECD with histidine tag (human, UniProt Q9H4A9 33-463); test: ELISA, coated antigen
T4 construct: also called hDPEP2-His; not shown: histidine tag
T4 sequence (Q9H4A9 33-463): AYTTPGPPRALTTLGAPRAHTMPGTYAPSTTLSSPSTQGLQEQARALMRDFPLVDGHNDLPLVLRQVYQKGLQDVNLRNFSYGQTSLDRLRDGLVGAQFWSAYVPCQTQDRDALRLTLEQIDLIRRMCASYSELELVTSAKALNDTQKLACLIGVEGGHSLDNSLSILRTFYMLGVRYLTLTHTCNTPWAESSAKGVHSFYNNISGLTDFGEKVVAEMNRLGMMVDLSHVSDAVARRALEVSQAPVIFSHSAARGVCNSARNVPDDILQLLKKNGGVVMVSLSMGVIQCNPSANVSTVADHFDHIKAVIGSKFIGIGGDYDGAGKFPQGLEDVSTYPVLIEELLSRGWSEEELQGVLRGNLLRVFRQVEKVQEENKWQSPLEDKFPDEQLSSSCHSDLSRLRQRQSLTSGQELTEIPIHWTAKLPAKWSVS
Protocol: as §1

binding result | Binder
no binding (tested: 1 ug/mL) | B1
no binding (tested: 1 ug/mL) | B10
no binding (tested: 1 ug/mL) | B2
no binding (tested: 1 ug/mL) | B3
no binding (tested: 1 ug/mL) | B4
no binding (tested: 1 ug/mL) | B5
no binding (tested: 1 ug/mL) | B11
no binding (tested: 1 ug/mL) | B6
no binding (tested: 1 ug/mL) | B7
no binding (tested: 1 ug/mL) | B8
no binding (tested: 1 ug/mL) | B9
no binding (tested: 1 ug/mL) | B12

molecular target: T3, hDPEP3-ECD-His; test: BLI ForteBio RED, 200 nM hDPEP3-His, estimated grade
Protocol: The affinity of the antibodies for hDPEP3-His was qualitatively determined from kinetics curves generated with a ForteBio RED as follows. Anti-DPEP3 antibodies were immobilized onto anti-mouse Fc capture biosensors with a contact time of 3 mins. and a flow rate of 1000 rpm. The captured antibody loading from baseline was constant at 0.3-1 units. Following antibody capture and 30 second baseline, the biosensors were dipped into a 200 nM solution of hDPEP3-His for a 4 min. association phase followed by a 3 min. dissociation phase at a shaking rate of 1000 rpm. The biosensors were regenerated by dipping into 10 mM glycine, pH 1.7 following each cycle. The data was processed by subtracting a control mouse IgG surface response from the specific antibody response and data was truncated to the association and dissociation phase. The association and dissociation curves were used to qualitatively estimate the affinities of selected antibodies. […] A designation of “ND” means that the estimated KD was not determined.

Kd | Binder
< 5 nM | B1
≥ 5 nM and ≤ 10 nM | B10
< 5 nM | B2
< 5 nM | B3
≥ 5 nM and ≤ 10 nM | B4
< 5 nM | B5
< 5 nM | B11
< 5 nM | B6
≥ 5 nM and ≤ 10 nM | B7
< 5 nM | B8
< 5 nM | B9
> 10 nM | B12
